Measurements from article PMC4695088, “An Oomycete CRN Effector Reprograms Expression of Plant HSP Genes by Targeting their Promoters”.

T1: GST:PsCRN108 (Phytophthora sojae, UniProt A0A0M5K865 18-820)
T1 sequence: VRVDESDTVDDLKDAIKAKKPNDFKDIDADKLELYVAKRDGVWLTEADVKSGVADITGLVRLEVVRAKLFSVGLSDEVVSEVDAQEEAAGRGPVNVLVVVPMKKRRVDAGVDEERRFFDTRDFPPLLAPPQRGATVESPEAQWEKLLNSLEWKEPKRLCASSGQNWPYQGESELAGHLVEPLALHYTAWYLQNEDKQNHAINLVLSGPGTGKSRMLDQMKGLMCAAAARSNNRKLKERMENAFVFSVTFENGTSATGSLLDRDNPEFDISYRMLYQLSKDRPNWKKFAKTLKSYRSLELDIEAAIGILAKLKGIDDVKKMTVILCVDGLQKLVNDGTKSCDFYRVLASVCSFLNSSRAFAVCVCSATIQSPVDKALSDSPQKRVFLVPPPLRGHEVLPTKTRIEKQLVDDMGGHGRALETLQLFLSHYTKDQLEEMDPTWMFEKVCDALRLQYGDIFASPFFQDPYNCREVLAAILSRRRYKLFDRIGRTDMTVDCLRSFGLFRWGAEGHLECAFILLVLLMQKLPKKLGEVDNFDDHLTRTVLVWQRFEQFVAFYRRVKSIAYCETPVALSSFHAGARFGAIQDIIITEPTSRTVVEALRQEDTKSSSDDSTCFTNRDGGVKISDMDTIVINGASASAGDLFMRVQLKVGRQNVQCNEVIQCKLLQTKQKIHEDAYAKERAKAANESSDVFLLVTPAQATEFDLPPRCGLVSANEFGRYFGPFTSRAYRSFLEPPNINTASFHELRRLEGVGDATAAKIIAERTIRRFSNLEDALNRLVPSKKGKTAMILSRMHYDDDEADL

T2: MBP:PsCRN108 (Phytophthora sojae, UniProt A0A0M5K865 18-820)
T2 sequence: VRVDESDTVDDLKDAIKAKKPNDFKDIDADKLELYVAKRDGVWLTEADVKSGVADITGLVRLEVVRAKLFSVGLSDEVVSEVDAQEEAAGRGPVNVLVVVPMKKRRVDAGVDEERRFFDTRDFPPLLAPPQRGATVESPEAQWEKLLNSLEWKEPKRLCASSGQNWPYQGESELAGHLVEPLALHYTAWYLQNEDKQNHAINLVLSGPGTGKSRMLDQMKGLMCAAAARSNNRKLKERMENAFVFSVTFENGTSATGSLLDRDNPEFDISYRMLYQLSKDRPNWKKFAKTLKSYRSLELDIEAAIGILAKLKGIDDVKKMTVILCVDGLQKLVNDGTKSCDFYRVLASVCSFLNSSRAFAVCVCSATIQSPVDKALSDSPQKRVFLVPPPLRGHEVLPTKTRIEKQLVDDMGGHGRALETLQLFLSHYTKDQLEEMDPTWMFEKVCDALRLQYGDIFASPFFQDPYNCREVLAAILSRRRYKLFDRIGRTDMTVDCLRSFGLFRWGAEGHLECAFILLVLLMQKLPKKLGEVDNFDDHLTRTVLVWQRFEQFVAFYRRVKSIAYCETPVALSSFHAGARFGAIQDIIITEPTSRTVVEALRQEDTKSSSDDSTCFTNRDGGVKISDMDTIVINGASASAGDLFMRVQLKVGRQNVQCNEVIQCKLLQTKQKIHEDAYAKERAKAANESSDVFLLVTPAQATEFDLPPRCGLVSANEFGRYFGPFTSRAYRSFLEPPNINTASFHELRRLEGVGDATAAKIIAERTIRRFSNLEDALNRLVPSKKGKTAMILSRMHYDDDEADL


How the values were obtained:
MBP:AtHsfA1a [1] = target: T3, MBP:AtHsfA1a (Arabidopsis thaliana, UniProt P41151 1-495); test: pull-down; 25 mM HEPES pH 8, 10 mM MgCl2, 20 mM KCl, 0.1 mM EDTA, 1 mM DTT, 100 ng poly(dI-dC), 5% glycerol, 25 C (EMSA 3 h; pull-down in the same buffer, 1 h + 1 h); conditions: protein: recombinant; tags: N-terminal His, MBP (pHMTc); chain copies: 3; label: 5' biotin; blunt
GST:PsCRN108 = target: T1, GST:PsCRN108; test: as above; conditions: protein: recombinant; tags: N-terminal GST (pGEX-4T-2); label: 5' biotin; blunt
MBP:PsCRN108 [2] = target: T2, MBP:PsCRN108; test: as above; conditions: protein: recombinant; tags: N-terminal His, MBP (pHMTc); label: 5' biotin; blunt
MBP:AtHsfA1a [3] = target: T3, MBP:AtHsfA1a; test: EMSA; up to 2 uM protein, 5 nM DNA; complex in wells; competed by unlabeled HSE; 25 mM HEPES pH 8, 10 mM MgCl2, 20 mM KCl, 0.1 mM EDTA, 1 mM DTT, 100 ng poly(dI-dC), 5% glycerol, 25 C (EMSA 3 h; pull-down in the same buffer, 1 h + 1 h); conditions: protein: recombinant; tags: N-terminal His, MBP (pHMTc); chain copies: 3; label: 5' Alex660 (EMSA); blunt
MBP:PsCRN108 [4] = target: T2, MBP:PsCRN108; test: EMSA; up to 6 uM protein, 5 nM DNA; weaker than AtHsfA1a; complex in wells; competed by unlabeled HSE; 25 mM HEPES pH 8, 10 mM MgCl2, 20 mM KCl, 0.1 mM EDTA, 1 mM DTT, 100 ng poly(dI-dC), 5% glycerol, 25 C (EMSA 3 h; pull-down in the same buffer, 1 h + 1 h); conditions: protein: recombinant; tags: N-terminal His, MBP (pHMTc); label: 5' Alex660 (EMSA); blunt

T3 sequence (P41151 whole entry): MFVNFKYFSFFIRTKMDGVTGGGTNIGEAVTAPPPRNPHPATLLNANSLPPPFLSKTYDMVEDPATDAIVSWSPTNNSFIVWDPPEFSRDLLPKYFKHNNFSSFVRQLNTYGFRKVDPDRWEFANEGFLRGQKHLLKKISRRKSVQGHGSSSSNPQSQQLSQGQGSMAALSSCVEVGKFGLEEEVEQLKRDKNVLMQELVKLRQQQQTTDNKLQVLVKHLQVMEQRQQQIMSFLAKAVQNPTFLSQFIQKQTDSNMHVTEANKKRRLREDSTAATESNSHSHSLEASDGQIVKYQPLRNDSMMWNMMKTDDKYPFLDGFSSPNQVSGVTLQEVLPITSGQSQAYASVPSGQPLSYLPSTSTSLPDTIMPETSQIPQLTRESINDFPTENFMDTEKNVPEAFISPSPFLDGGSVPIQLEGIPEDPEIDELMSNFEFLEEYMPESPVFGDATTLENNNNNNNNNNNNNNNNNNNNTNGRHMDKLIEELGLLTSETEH

Binder | binding result (MBP:AtHsfA1a [1]) | binding result (GST:PsCRN108) | binding result (MBP:PsCRN108 [2]) | binding result (MBP:AtHsfA1a [3]) | binding result (MBP:PsCRN108 [4])
biotinylated 19 bp HSE (dsDNA) DNA 1: CCAGAAGCTTCCAGAAGCC DNA 2: GGCTTCTGGAAGCTTCTGG | binds | binds | binds |  | 
19 bp HSE (dsDNA) DNA 1: CCAGAAGCTTCCAGAAGCC DNA 2: GGCTTCTGGAAGCTTCTGG |  |  |  | binds | binds
